EC50 and IC50 data for three molecules are collected here from patent publication US20250346678A1 (published 2025).

Assay [1] concerns the target T1, human PD-L1 IgG1 Fc chimera (human, UniProt Q9NZQ7 19-238). The assay can be described thus: ELISA. Background: ELISA stands for enzyme-linked immunosorbent assay.
For assay [2], the target named is T2, human OX40 IgG1 Fc chimera (human, UniProt P43489 29-214).
T2 chain: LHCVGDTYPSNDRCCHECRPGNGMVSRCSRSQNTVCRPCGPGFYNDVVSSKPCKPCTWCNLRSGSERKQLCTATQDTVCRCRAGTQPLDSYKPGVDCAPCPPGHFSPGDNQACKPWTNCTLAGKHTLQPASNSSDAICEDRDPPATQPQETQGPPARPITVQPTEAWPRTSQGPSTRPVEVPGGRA
The experiment in a line: ELISA.

The target of assay [3] is T1, human PD-L1 IgG1 Fc chimera. The experiment in a line: competition ELISA; PD-1/PD-L1 blocking.

T1 sequence (Q9NZQ7 19-238, change not shown): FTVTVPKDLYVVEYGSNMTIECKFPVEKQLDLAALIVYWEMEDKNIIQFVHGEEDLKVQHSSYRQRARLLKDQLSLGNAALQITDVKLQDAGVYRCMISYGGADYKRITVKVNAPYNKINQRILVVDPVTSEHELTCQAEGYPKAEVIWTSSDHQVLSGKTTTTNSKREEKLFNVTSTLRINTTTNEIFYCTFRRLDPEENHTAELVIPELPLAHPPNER

B1: anti-PD-L1 antibody clone 32 (antibody, V domains shown)
VH: QVQLVQSGAKVKKPGSSVKVSCKASGGTFSSYAISWVRQAPGQGLEWMGRIIPILGIANYAQKFQGRVTITADKSTSTAYMELSSLRSEDTAVYYCARVVPGYSYGPFDYWGQGTTVTVSS
VL: QSALTQPASVSGSPGQSITISCTGTSNDVGSYNSVSWYQQHPGKAPKLVIYEVANRPSGVPDRFSGSKSGNTASLTISGLQAEDEADYYCSSYTSSSTLVFGGGTKLTVLG
Broadly, the EC50 is the concentration that produces a half-maximal response. As to B1, the EC50 in assay [1] amounted to 0.0348 nM.

B2: anti-OX40 antibody clone B19 (antibody, V domains shown)
VH: EVQLVESGGGLVKPGGSLRLSCAASGFTFSSYSMNWVRQAPGKGLEWVSSISSSSRYIYYADSVKGRFTISRDNAKNSLYLQMNSLRAEDTAVYYCARQNEDVAFGIWGQGTMVTVSS
VL: SYVLTQPPSVSVTPGKTARIACGGNNLESKIVSWYQQKPGQAPVLVIFYDTDRPSGISERFSGSNSGNTATLTISRVEAGDEADYYCQVWDSNSDHVIFGGGTKLTVLG
Take B2: it took 1.22 nM to reach a half-maximal effect in assay [2] (EC50).

B3: anti-PD-L1 antibody clone 6 (antibody, V domains shown)
VH: QVQLVQSGAEVKKPGSSVKVSCKASGGTFRRYSISWVRQAPGQGLEWMGGIIPVFGAAKYAQKFQGRVTITADEFTSTAYMELSSLTSEDTAVYYCALSGDSDAFDIWGQGTMVTVSS
VL: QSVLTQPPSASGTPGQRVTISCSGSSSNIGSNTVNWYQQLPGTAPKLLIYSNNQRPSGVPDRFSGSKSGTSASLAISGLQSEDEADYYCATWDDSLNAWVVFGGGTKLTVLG
As usually defined, the IC50 is the concentration needed to halve the response being measured. High values mean lower potency, low ones higher potency. B3 yielded an EC50 in assay [1] of 0.082 nM. The concentration for half-maximal inhibition (IC50) in assay [3] was 11.4 nM.
